What was measured:
Assay type in all cases: cell-based
[1] = target: EGFR homodimers in the presence of excess ErbB2 (Homo sapiens, UniProt P04626); experiment: EGFR homodimerization in EGFRα*-EGFRω cell line overexpressing wild-type ErbB2; details: EGFRα*-EGFRω cells overexpressing wild-type ErbB2; increasing concentrations of EGF
Description: As a test of this hypothesis, the wildtype ErbB2 lacking a β-gal fragment was overexpressed in the EGFRα*-EGFRω cell line. […] This disruption allowed EGFRα* and EGFRω to interact and homodimerize.

EGFR and ErbB2 = EGFR and ErbB2 (Homo sapiens, UniProt P04626); experiment: Low affinity β-gal complementation, EGFR-ErbB2 heterodimerization; details: for loss of β-gal activity (heterodimer dissociation) after removal of ligand: EGFRω-ErbB2α* cells, ligand added, then washout
Description: To perform a quantitative comparison of the different pairs of receptors, receptor expression level in cells was controlled, as the amount of β-gal fusion protein affects β-gal enzyme activity (FIG. 2). […] These cells were engineered to express either the ErbB2-ω or the EGFR-ω fusion proteins. Each of the ω-expressing parental cell lines were then split and transduced with each of three constructs encoding different α-fusion proteins, EGFR-α*, ErbB2-α*, and ErbB3-α*. Because the cells were generated from the same parental line, they expressed equivalent amounts of ω. To allow measurement of α* chimeric protein expression levels, YFP was included in each construct, between the ErbB receptor and the α*.

ErbB2 homodimers = target: T1, ErbB2 homodimers (Homo sapiens, UniProt P04626); experiment: Low affinity β-gal complementation, ErbB2ω-ErbB2α* homodimerization; details: ligand for 45 min; 20,000 cells per well
T1 construct: ErbB2 (aa 1-686); expressed in transfected cells; host or cells: C2C12 cells, retroviral transduction
Description: To perform a quantitative comparison of the different pairs of receptors, receptor expression level in cells was controlled, as the amount of β-gal fusion protein affects β-gal enzyme activity (FIG. 2). To this end, two parental cell lines were constructed using C2C12 cells in which ErbB family members are expressed at very low levels (S. Corti et al., Exp Cell Res 268, 36 (Aug. 1, 2001)). These cells were engineered to express either the ErbB2-ω or the EGFR-ω fusion proteins. Each of the ω-expressing parental cell lines were then split and transduced with each of three constructs encoding different α-fusion proteins, EGFR-α*, ErbB2-α*, and ErbB3-α*. Because the cells were generated from the same parental line, they expressed equivalent amounts of ω. To allow measurement of α* chimeric protein expression levels, YFP was included in each construct, between the ErbB receptor and the α*. […] YFP was imaged by confocal microscopy to ensure that the receptor fusion proteins were appropriately localized to the plasma membrane, which is essential to their function (FIG. 3).
Cells were returned to a 37° C.
Isoproterenol, propranolol and rapamycin were from Sigma.

EGF: recombinant human EGF from Peprotech, ligand that binds the EGFR
β-gal activity in response to EGF, no antibody [1]: failed to stimulate β-gal activity
EGFRω-ErbB2α* heterodimer formation over time (enzyme activity) (EGFR and ErbB2; 100 ng/ml EGF): time-dependent increase in enzyme activity
loss of β-gal activity (heterodimer dissociation) after removal of ligand (EGFR and ErbB2): β-gal activity decreased over time
ligand-induced heterodimerization of EGFR with ErbB2 (β-gal activity) (EGFR and ErbB2; ligand for 45 min, 20,000 cells per well): heterodimerization of EGFR with ErbB2
response of ErbB2ω-ErbB2α* cells to ligand (β-gal activity) (ErbB2 homodimers): not responsive

TGF-α: recombinant human TGF-α from Peprotech, EGFR ligand
loss of β-gal activity (heterodimer dissociation) after removal of ligand (EGFR and ErbB2): signal decayed more rapidly following TGF-α than after EGF exposure

From patent US8541175B2, “Detection of molecular interactions using a reduced affinity enzyme complementation reporter system” (The Board of Trustees of the Leland Stanford Junior …, priority 2006, dated 2013)
